For one test, the target named is T1, mouse serum albumin (mouse, UniProt P07724 25-608).
T1 construct: mature; also called MSA; MouseSA
The experiment in a line: SPR, FcRn immobilized, 1:1 Langmuir model. The procedure: SPR analyses were performed on a BIAcore 3000 instrument (GE Healthcare) using CM5 chips and immobilization of smFcRn-GST and shFcRn-GST variants or smFcRn was performed using the amine coupling kit (GE Healthcare). Protein samples (10 μg/ml) were injected in 10 mM sodium acetate at pH 4.5 (GE Healthcare), all as described by the manufacturer. Unreacted moieties on the surface were blocked with 1 M ethanolamine. For all experiments, phosphate buffer (67 mM phosphate buffer, 0.15 M NaCl, 0.005% TWEEN® 20) at pH 6.0 or pH 7.4, or HBS-P buffer (0.01 M HEPES, 0.15 M NaCl, 0.005% surfactant P20) at pH 7.4 were used as running buffer or dilution buffer. Kinetic measurements were performed using a low density immobilized surface (100-200 resonance units (RU)). […] In all cases, to correct for nonspecific binding and bulk buffer effects, responses obtained from the control surfaces and blank injections were subtracted from each interaction curve. Kinetic rate values were calculated using predefined models (Langmuir 1:1 ligand model, heterogeneous ligand model and steady state affinity model) provided by the BIAevaluation 4.1 software.
The KD's were generated using the B|Aevaluation 4.1 software) A Langmuir 1:1 ligand model was used throughout. The kinetic values represent the average or triplicates. ND means: Not determined. NA means: Not acquired
(Surface plasmon resonance follows binding to a sensor surface in real time, without labels.)

For test [1], the target named is T2, glutathione-S-transferase (GST)-fused shFcRn (human, UniProt P55899 24-290; P61769 21-119, limits assumed).
T2 construct: Made as in Berntzen et al. 2005 / FEBS J. 2008; also called shFcRn-GST; GST-tagged shFcRn; not shown: GST tag
T2 sequence (P55899 24-290 limits assumed, chain 1 of 2): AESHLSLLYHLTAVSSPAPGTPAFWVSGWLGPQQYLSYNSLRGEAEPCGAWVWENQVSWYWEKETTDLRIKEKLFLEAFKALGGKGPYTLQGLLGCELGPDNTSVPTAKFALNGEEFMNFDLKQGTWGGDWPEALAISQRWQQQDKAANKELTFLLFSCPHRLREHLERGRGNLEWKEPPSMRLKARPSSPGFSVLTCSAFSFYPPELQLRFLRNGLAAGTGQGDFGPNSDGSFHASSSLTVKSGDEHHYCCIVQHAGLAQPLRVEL
T2 sequence (P61769 21-119 limits assumed, chain 2 of 2): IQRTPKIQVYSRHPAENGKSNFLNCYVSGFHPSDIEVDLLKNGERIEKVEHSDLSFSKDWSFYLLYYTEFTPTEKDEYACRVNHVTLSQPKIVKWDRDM
The test is described as follows: ELISA: albumin coated at the concentration on the axis, shFcRn-GST in solution, pH 6.0. The procedure: One hundred μl of the substrate tetramethylbenzidine (TMB) (Calbiochem) was added to each well and incubated for 45 min before 100 μl of 0.25 M HCl was added. The absorbance was measured at 450 nm using a Sunrise TECAN spectrophotometer (TECAN, Maennedorf, Switzerland). The same ELISA was repeated with PBS/T pH 7.4.
Commercially available animal albumin (either Sigma-Aldrich or Calbiochem) were further purified as described in Andersen et al (2010). J. Biol. Chem. 285, (7), 4826-4836.
(An ELISA detects its analyte on a solid surface through an enzyme-linked reagent.)

These results are taken from patent US20120220530A1 (NOVOZYMES BIOPHARMA DK A S, published 2012).

As usually defined, the Kd is the equilibrium constant for the complex coming apart. The low end stands for tighter binding, the high end for weaker binding. What is called koff is the first-order rate constant of dissociation. The low end stands for slow dissociation, the high end for fast dissociation. One may read the kon as a measure of how fast the partners come together. High values mean faster complex formation, low ones slower complex formation. One may read the EC50 (read off the curve) as the concentration needed to bring the measured effect to its halfway point. A high value points to a need for much substance.

B1: soluble mouse FcRn (smFcRn) (receptor)
chain 1: SETRPPLMYHLTAVSNPSTGLPSFWATGWLGPQQYLTYNSLRQEADPCGAWMWENQVSWYWEKETTDLKSKEQLFLEALKTLEKILNGTYTLQGLLGCELASDNSSVPTAVFALNGEEFMKFNPRIGNWTGEWPETEIVANLWMKQPDAARKESEFLLNSCPERLLGHLERGRRNLEWKEPPSMRLKARPGNSGSSVLTCAAFSFYPPELKFRFLRNGLASGSGNCSTGPNGDGSFHAWSLLEVKRGDEHHYQCQVEHEGLAQPLTVDLDSSARSS
chain 2: IQKTPQIQVYSRHPPENGKPNILNCYVTQFHPPHIEIQMLKNGKKIPKVEMSDMSFSKDWSFYILAHTEFTPTETDTYACRVKHASMAEPKTVYWDRDM
Take B1: in the test with mouse serum albumin, the Kd was 9.3 µM, the koff was found to be 0.0394 s⁻¹ and the kon amounted to 4200 M⁻¹ s⁻¹.

B2: donkey serum albumin (ligand, UniProt Q5XLE4 25-607, looked up)
chain: DTHKSEIAHRFNDLGEKHFKGLVLVAFSQYLQQCPFEDHVKLVNEVTEFAKKCAADESAENCDKSLHTLFGDKLCTVATLRATYGELADCCEKQEPERNECFLTHKDDHPNLPKLKPEPDAQCAAFQEDPDKFLGKYLYEVARRHPYFYGPELLFHAEEYKADFTECCPADDKAGCLIPKLDALKERILLSSAKERLKCSSFQKFGERAFKAWSVARLSQKFPKADFAEVSKIVTDLTKVHKECCHGDLLECADDRADLTKYICEHQDSISGKLKACCDKPLLQKSHCIAEVKEDDLPSDLPALAADFAEDKEICKHYKDAKDVFLGTFLYEYSRRHPDYSVSLLLRIAKTYEATLEKCCAEADPPACYATVFDQFTPLVEEPKSLVKKNCDLFEEVGEYDFQNALIVRYTKKAPQVSTPTLVEIGRTLGKVGSRCCKLPESERLPCSENHLALALNRLCVLHEKTPVSEKITKCCTDSLAERRPCFSALELDEGYIPKEFKAETFTFHADICTLPEDEKQIKKQSALAELVKHKPKATKEQLKTVLGNFSAFVAKCCGAEDKEACFAEEGPKLVASSQLALA
notes: mature
With B2, in test [1], the “EC50 (read off the curve)” value was about 1 µg/mL.
